Experiments:
[1] = test system: microbial load of hummus salad; assay: Shelf life of hummus salad at pH 4.8; format: cell-based; conditions: pH 4.8, stored at 6° C, psoriasin 0.2%
Method: The ability of psoriasin to extend the shelf life of a hummus salad preparation was examined. A commercially-available preparation that is acidified at pH 4.8 and to which 0.2% potassium sorbate was added in order to ensure food safety was compared to a hummus salad at the same pH with and without the addition of psoriasin at the same concentration. No antibiotics were added and there was no addition of mold, yeast or bacteria to the preparation.
Samples were stored at 6° C. and total CFU counts were performed on days 0, 12, 26, and 62 by plating on LB and PDA agar petri dishes. Photos (i.e., visual inspection) were taken every 7 days. As is evident from FIG. 14A, psoriasin extended the shelf life of the hummus salad at pH 4.8 by 2 months.

[2] = test system: microbial load of hummus spread; assay: Shelf life of canned hummus spread at natural pH 6.5; format: cell-based; conditions: pH 6.5, stored at 6° C in an open container
Method: In a further related example, the ability of psoriasin to extend the shelf life of a canned hummus spread preparation was compared with that of nisin, a commonly used preservative at pH 6.5, the natural pH of the preparation. As described above, no antibiotics were added and there was no addition of mold, yeast or bacteria to the hummus spread. The hummus spread was split into 3 groups: i) untreated, ii) nisin-treated, and iii) psoriasin-treated. The hummus spread was stored at 6° C. in an open container. Total CFU count was determined by plating on LB and PDA agar petri dishes.

Aspergillus flavus = assay: Dose-response growth assay in 96 well plates, A. flavus in RPMI-MOPS; format: cell-based; conditions: A. flavus, 5,000 spores, absorbance 600 nm
Method: A. flavus A11 spores were seeded on 10 cm plates of YAG-agarose for 3-4 days in a humidified incubator at 30° C. After sporulation, fresh spores were collected with 5 ml DDW+0.2% Tween. Spores were then centrifuged at room temperatures (5 min, 4,000 RPM), and suspended in 5 ml DDW. The suspension was termed “A. flavus fresh stock”.
A. flavus fresh stock was diluted ×1000 using DDW, and the spores were counted using a cytometer to determine the stock spores' concentration. A. flavus fresh stock was used for one week after spore production before disposal.
(§1) RPMI-MOPS (RPMI Powder, 165 mM MOPS, and Pen/Strep solution (x100)) was inoculated with either 50,000 spores/ml of A. flavus, or 1 colony/10 ml of C. albicans. The inoculated RPMI-MOPS was poured into a Nunclone™ coated 96-well plate (100 μl per well), with the different treatments and controls. The 96-well plate was then incubated in a shaker/incubator plate-reader at 30° C. where the absorbance (600 nm) was monitored and measured every 10 minutes.
In order to evaluate the ability of recombinant His-psoriasin to inhibit the growth of Aspergillus flavus, 5,000 spores were incubated in a RPMI-MPS medium with variable concentrations of psoriasin added to each well. Fungi growth was monitored using an absorbance plate reader every 10 minutes at 600 nm.

[3] = test system: initial microbial load of plant-based meat substitute; assay: Microbial load of plant-based meat substitute during storage; format: cell-based
Method: The ability of psoriasin to extend the shelf life of a plant-based meat substitute was examined under standard storage conditions. Three groups, each stored as an open package at […], were assessed over the course of 16 days. The groups included i) an untreated control, ii) a nisin-treated sample, and iii) a psoriasin-treated sample at 0.65%. A single source of the plant-based meat substitute was used and each group was reproduced in triplicate. The microbial load of the plant-based meat substitute samples was based on the initial microbial load without the addition of antibiotics and without the addition of mold, yeast or bacteria. Samples from each group were taken on days 1, 3, 5, 10, 11 and 16 and total CFU count was determined by plating on LB and PDA agar petri dishes.

C. albicans = assay: Fungal growth in natural apple and beetroot juice; format: cell-based, Candida albicans; conditions: pH=7, 40 μM and 400 μM
Method: Natural beetroot and apple juice without preservatives, was diluted ×0.5 with PBS×1 to avoid high background absorbance. The juice was titrated to pH=7.4 with 1M NaOH, inoculated with C. albicans (1 colony/10 ml), treated with 40 μM and 400 μM His-psoriasin, and monitored with the same measuring program as the RPMI-MOPS experiments. In order to evaluate the effect of His-psoriasin on fungal growth in juice, natural apple and beetroot juices were inoculated without any preservatives with C. albicans. The samples were titrated to pH=7 and treated with 40 μM and 400 μM of recombinant His-psoriasin. The samples were placed in a 96 well-plate and absorbance at 600 nm was monitored vs. time.

Candida albicans = assay: Dose-response growth assay in 96 well plates, C. albicans in RPMI-MOPS (also zinc and pH variation); format: cell-based
Method: C. albicans were seeded on 10 cm plates of YAG-agarose for 1-2 days in a humidified incubator at 30° C. C. albicans colonies were used for 48 hours after their appearance before disposal.
as §1
In Example 4, several ZnCl2 concentrations were added to 1 μM of His-psoriasin.
In Example 5, RPMI-MOPS was titrated to the different pH levels using 1M NaOH solution (RMPI-MOPS, initial pH ~4).
In order to evaluate the ability of recombinant His-psoriasin to inhibit the growth of Candida albicans, a single colony/10 ml was incubated in a RPMI-MOPS medium with variable concentrations of psoriasin added to each well. Fungi growth was monitored using an absorbance plate reader every 10 minutes at 600 nm. No apparent growth was measured in psoriasin concentrations higher than 300 nM for C. albicans (FIG. 2).
In order to test the effect of zinc ions on the ability of psoriasin to inhibit fungal growth, Candida albicans was incubated in a RPMI-MOPS medium in the presence of 1 μM psoriasin with variable concentrations of ZnCl2.
Candida albicans was incubated in a RPMI-MOPS medium in the presence of 10 μM His-psoriasin at variable pHs. […] Accordingly, effective anti-fungal activity of His-psoriasin can be obtained also at pH levels that are lower than pH=8.

B1: psoriasin: Recombinant human psoriasin (S100a7) containing a histidine tag, amino acid sequence SEQ ID NO: 11, expression vector pET-28a (protein, listed as Homo sapiens)
chain: MSNTQAERSIIGMIDMFHKYTRRDDKIEKPSLLTMMKENFPNFLSACDKKGTNYLADVFEKKDKNEDKKIDFSEFLSLLGDIATDYHKQSHGAAPCSGGSQ
[1]
  extension of shelf life of hummus salad: 2 months
[2]
  time without microbial growth in hummus spread: over 32 days
Aspergillus flavus
  psoriasin concentration above which no apparent growth was measured: higher than 375 nM
[3]
  increase of shelf life of plant-based meat substitute: 3 Fold
[3]; Day 1
  Yeast & Mold Count: 2 × 10^2
[3]; Day 1, open package, psoriasin 0.65%
  Total CFU count: 1.2 × 10^4 CFU
[3]; Day 3
  Total CFU count: 1.2 × 10^4 CFU
  Yeast & Mold Count: 2 × 10^2
[3]; Day 5
  Total CFU count: 1.2 × 10^4 CFU
  Yeast & Mold Count: 2 × 10^2
[3]; Day 10
  Total CFU count: 6.65 × 10^5 CFU
  Yeast & Mold Count: 2 × 10^2
[3]; Day 11
  Total CFU count: 6.5 × 10^5 CFU
  Yeast & Mold Count: 2 × 10^2
[3]; Day 16
  Total CFU count: 2.4 × 10^6 CFU
  Yeast & Mold Count: 1 × 10^3
[3]; psoriasin 0.65%
  less microbial load than the other two groups (untreated, nisin): 4 logs
C. albicans
  fungal proliferation in juice: not able to proliferate
Candida albicans; 10 μM His-psoriasin, RPMI-MOPS
  C. albicans proliferation at variable pHs: prevent C. albicans proliferation at all the tested pH levels
Candida albicans; C. albicans single colony/10 ml, RPMI-MOPS, absorbance 600 nm
  psoriasin concentration above which no apparent growth was measured: higher than 300 nM
Candida albicans; in the presence of 1 μM psoriasin
  ZnCl2 concentration above which the fungi retained their full ability to grow: above 1.2 μM

Reference: patent US20260231968A1, “AN ECO-FRIENDLY, SUSTAINABLE FOOD PRESERVATIVE” (priority 2023, published 2026)
